Laboratory results from publication PMC9513430.

Biological target: Type I collagen
Assay: adhesion of whole bacteria to a coated plate (crystal violet staining); type I collagen (0.002-2 mg in 0.25 M acetic acid) coated on 96-well plates overnight at 4°C, blocked with BSA; overnight cultures of S. mutans (1 x 10^8-1 x 10^10 CFU) 3 h at 37°C; fixed, stained with crystal violet, OD595; percent of parental strain SN74

## Cnm of Streptococcus mutans strain TW871, expressed in complemented strain SN74CNDcomp (natural protein)
  percent of the collagen binding of parental strain SN74: 60%
